The subject of this series is T1, Cas13f v3 (v2+D160A&D642A) (synthetic construct).
T1 sequence: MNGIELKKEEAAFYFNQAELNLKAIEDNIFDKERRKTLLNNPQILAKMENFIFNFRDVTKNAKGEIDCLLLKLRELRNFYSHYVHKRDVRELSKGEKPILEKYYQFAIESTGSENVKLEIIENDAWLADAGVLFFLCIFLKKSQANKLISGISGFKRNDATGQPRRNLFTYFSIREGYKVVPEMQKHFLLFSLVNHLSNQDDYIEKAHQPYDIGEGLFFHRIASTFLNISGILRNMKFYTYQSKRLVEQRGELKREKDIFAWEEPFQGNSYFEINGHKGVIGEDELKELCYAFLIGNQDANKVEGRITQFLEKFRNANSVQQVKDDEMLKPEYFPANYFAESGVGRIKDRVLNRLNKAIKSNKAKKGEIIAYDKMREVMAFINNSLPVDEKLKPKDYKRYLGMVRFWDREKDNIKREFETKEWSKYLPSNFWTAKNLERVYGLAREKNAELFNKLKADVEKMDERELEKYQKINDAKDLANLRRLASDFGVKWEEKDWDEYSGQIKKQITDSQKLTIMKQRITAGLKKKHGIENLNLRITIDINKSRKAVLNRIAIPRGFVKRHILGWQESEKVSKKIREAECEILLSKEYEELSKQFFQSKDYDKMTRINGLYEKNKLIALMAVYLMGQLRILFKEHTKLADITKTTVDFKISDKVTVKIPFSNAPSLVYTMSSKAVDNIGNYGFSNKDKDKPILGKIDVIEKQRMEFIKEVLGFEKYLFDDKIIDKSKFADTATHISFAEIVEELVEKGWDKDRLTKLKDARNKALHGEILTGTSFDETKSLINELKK
Description: cell_activity. Conditions: HEK293T; non-targeting spacer control.

With “non-targeting gRNA (DR-spacer-DR) ; mCherry reporter mRNA”, the activity (RFP MFI (normalization reference)) came out at 1.

The values are drawn from patent publication US20250270529.
